B1: 2K2A (parent)
chain: ELREAFRLYDKEGNGYISTDVMREILAELDETLSSEDLDAMIDEIDADGSGTVDFEEFMGVMT

Variants of: B1
Experiment: folding stability dG (cDNA display proteolysis); higher = more stable
Settings: PBS, room temperature

Row | Variant | folding stability dG [kcal/mol]
1 | ELREAFRLYDKEGNGYISTDVMREILAELDETLSSEDLDAMIDEVDADGSGTVDFEEFMGVMT [I45V] | 1.57
2 | ELREAFRLYDKEGNGYISTDVMREILAELDETLSSEDLDAMIDECDADGSGTVDFEEFMGVMT [I45C] | 0.783
3 | ELREAFRLYDKEGNGYISTDVMREILAELDETLSSEDLDAMIDELDADGSGTVDFEEFMGVMT [I45L] | 1.74
4 | ELREAFRLYDKEGNGYISTDVMREILAELDETLSSEDLDAMIDEQDADGSGTVDFEEFMGVMT [I45Q] | 0.111
5 | ELREAFRLYDKEGNGYISTDVMREILAELDETLSSEDLDAMIDEPDADGSGTVDFEEFMGVMT [I45P] | -0.366
6 | ELREAFRLYDKEGNGYISTDVMREILAELDETLSSEDLDAMIDEYDADGSGTVDFEEFMGVMT [I45Y] | 1.05
7 | ELREAFRLYDKEGNGYISTDVMREILAELDETLSSEDLDAMIDEFDADGSGTVDFEEFMGVMT [I45F] | 1.21
8 | ELREAFRLYDKEGNGYISTDVMREILAELDETLSSEDLDAMIDEWDADGSGTVDFEEFMGVMT [I45W] | 1.32
9 | ELREAFRLYDKEGNGYISTDVMREILAELDETLSSEDLDAMIDEKDADGSGTVDFEEFMGVMT [I45K] | -0.192
10 | ELREAFRLYDKEGNGYISTDVMREILAELDETLSSEDLDAMIDETDADGSGTVDFEEFMGVMT [I45T] | 0.714
11 | ELREAFRLYDKEGNGYISTDVMREILAELDETLSSEDLDAMIDEADADGSGTVDFEEFMGVMT [I45A] | 1.56
12 | ELREAFRLYDKEGNGYISTDVMREILAELDETLSSEDLDAMIDESDADGSGTVDFEEFMGVMT [I45S] | 0.36
13 | ELREAFRLYDKEGNGYISTDVMREILAELDETLSSEDLDAMIDENDADGSGTVDFEEFMGVMT [I45N] | -0.113
14 | ELREAFRLYDKEGNGYISTDVMREILAELDETLSSEDLDAMIDEMDADGSGTVDFEEFMGVMT [I45M] | 1.93
15 | ELREAFRLYDKEGNGYISTDVMREILAELDETLSSEDLDAMIDEGDADGSGTVDFEEFMGVMT [I45G] | 0.37
16 | ELREAFRLYDKEGNGYISTDVMREILAELDETLSSEDLDAMIDEHDADGSGTVDFEEFMGVMT [I45H] | 0.664
17 | ELREAFRLYDKEGNGYISTDVMREILAELDETLSSEDLDAMIDERDADGSGTVDFEEFMGVMT [I45R] | 0.158
18 | ELREAFRLYDKEGNGYISTDVMREILAELDETLSSEDLDAMIDEIDMDGSGTVDFEEFMGVMT [A47M] | 1.64
19 | ELREAFRLYDKEGNGYISTDVMREILAELDETLSSEDLDAMIDEIDVDGSGTVDFEEFMGVMT [A47V] | 1.91
20 | ELREAFRLYDKEGNGYISTDVMREILAELDETLSSEDLDAMIDEIDGDGSGTVDFEEFMGVMT [A47G] | 1.57
21 | ELREAFRLYDKEGNGYISTDVMREILAELDETLSSEDLDAMIDEIDEDGSGTVDFEEFMGVMT [A47E] | 1.4
22 | ELREAFRLYDKEGNGYISTDVMREILAELDETLSSEDLDAMIDEIDRDGSGTVDFEEFMGVMT [A47R] | 2.06

Row | Variant | folding stability dG [kcal/mol]
23 | ELREAFRLYDKEGNGYISTDVMREILAELDETLSSEDLDAMIDEIDYDGSGTVDFEEFMGVMT [A47Y] | 1.62
24 | ELREAFRLYDKEGNGYISTDVMREILAELDETLSSEDLDAMIDEIDQDGSGTVDFEEFMGVMT [A47Q] | 1.93
25 | ELREAFRLYDKEGNGYISTDVMREILAELDETLSSEDLDAMIDEIDDDGSGTVDFEEFMGVMT [A47D] | 1.06
26 | ELREAFRLYDKEGNGYISTDVMREILAELDETLSSEDLDAMIDEIDCDGSGTVDFEEFMGVMT [A47C] | 1.97
27 | ELREAFRLYDKEGNGYISTDVMREILAELDETLSSEDLDAMIDEIDSDGSGTVDFEEFMGVMT [A47S] | 1.8
28 | ELREAFRLYDKEGNGYISTDVMREILAELDETLSSEDLDAMIDEIDKDGSGTVDFEEFMGVMT [A47K] | 2.2
29 | ELREAFRLYDKEGNGYISTDVMREILAELDETLSSEDLDAMIDEIDLDGSGTVDFEEFMGVMT [A47L] | 1.78
30 | ELREAFRLYDKEGNGYISTDVMREILAELDETLSSEDLDAMIDEIDIDGSGTVDFEEFMGVMT [A47I] | 1.86
31 | ELREAFRLYDKEGNGYISTDVMREILAELDETLSSEDLDAMIDEIDTDGSGTVDFEEFMGVMT [A47T] | 1.84
32 | ELREAFRLYDKEGNGYISTDVMREILAELDETLSSEDLDAMIDEIDNDGSGTVDFEEFMGVMT [A47N] | 1.62
33 | ELREAFRLYDKEGNGYISTDVMREILAELDETLSSEDLDAMIDEIDHDGSGTVDFEEFMGVMT [A47H] | 1.96
34 | ELREAFRLYDKEGNGYISTDVMREILAELDETLSSEDLDAMIDEIDPDGSGTVDFEEFMGVMT [A47P] | 1.92
35 | ELREAFRLYDKEGNGYISTDVMREILAELDETLSSEDLDAMIDEIDWDGSGTVDFEEFMGVMT [A47W] | 1.96
36 | ELREAFRLYDKEGNGYISTDVMREILAELDETLSSEDLDAMIDEIDFDGSGTVDFEEFMGVMT [A47F] | 1.69
37 | ELREAFRLYDKEGNGYISTDVMREILAELDETLSSEDLDAMIDEIMADGSGTVDFEEFMGVMT [D46M] | 0.648
38 | ELREAFRLYDKEGNGYISTDVMREILAELDETLSSEDLDAMIDEIEADGSGTVDFEEFMGVMT [D46E] | 0.581
39 | ELREAFRLYDKEGNGYISTDVMREILAELDETLSSEDLDAMIDEIGADGSGTVDFEEFMGVMT [D46G] | 0.581
40 | ELREAFRLYDKEGNGYISTDVMREILAELDETLSSEDLDAMIDEIKADGSGTVDFEEFMGVMT [D46K] | 0.845
41 | ELREAFRLYDKEGNGYISTDVMREILAELDETLSSEDLDAMIDEICADGSGTVDFEEFMGVMT [D46C] | 0.854
42 | ELREAFRLYDKEGNGYISTDVMREILAELDETLSSEDLDAMIDEIAADGSGTVDFEEFMGVMT [D46A] | 0.858
43 | ELREAFRLYDKEGNGYISTDVMREILAELDETLSSEDLDAMIDEIYADGSGTVDFEEFMGVMT [D46Y] | 0.647
44 | ELREAFRLYDKEGNGYISTDVMREILAELDETLSSEDLDAMIDEIIADGSGTVDFEEFMGVMT [D46I] | 0.796

Row | Variant | folding stability dG [kcal/mol]
45 | ELREAFRLYDKEGNGYISTDVMREILAELDETLSSEDLDAMIDEIFADGSGTVDFEEFMGVMT [D46F] | 0.726
46 | ELREAFRLYDKEGNGYISTDVMREILAELDETLSSEDLDAMIDEIHADGSGTVDFEEFMGVMT [D46H] | 0.812
47 | ELREAFRLYDKEGNGYISTDVMREILAELDETLSSEDLDAMIDEIPADGSGTVDFEEFMGVMT [D46P] | -0.155
48 | ELREAFRLYDKEGNGYISTDVMREILAELDETLSSEDLDAMIDEIWADGSGTVDFEEFMGVMT [D46W] | 0.628
49 | ELREAFRLYDKEGNGYISTDVMREILAELDETLSSEDLDAMIDEILADGSGTVDFEEFMGVMT [D46L] | 0.716
50 | ELREAFRLYDKEGNGYISTDVMREILAELDETLSSEDLDAMIDEIVADGSGTVDFEEFMGVMT [D46V] | 0.984
51 | ELREAFRLYDKEGNGYISTDVMREILAELDETLSSEDLDAMIDEIRADGSGTVDFEEFMGVMT [D46R] | 0.799
52 | ELREAFRLYDKEGNGYISTDVMREILAELDETLSSEDLDAMIDEINADGSGTVDFEEFMGVMT [D46N] | 1.46
53 | ELREAFRLYDKEGNGYISTDVMREILAELDETLSSEDLDAMIDEITADGSGTVDFEEFMGVMT [D46T] | 0.826
54 | ELREAFRLYDKEGNGYISTDVMREILAELDETLSSEDLDAMIDEISADGSGTVDFEEFMGVMT [D46S] | 0.962
55 | ELREAFRLYDKEGNGYISTDVMREILAELDETLSSEDLDAMIDEIQADGSGTVDFEEFMGVMT [D46Q] | 0.665
56 | ELREAFRLYDKEGNGYISTDVMREILAELDETLSSEDLDAMIDAIDADGSGTVDFEEFMGVMT [E44A] | 2.12
57 | ELREAFRLYDKEGNGYISTDVMREILAELDETLSSEDLDAMIDQIDADGSGTVDFEEFMGVMT [E44Q] | 2.06
58 | ELREAFRLYDKEGNGYISTDVMREILAELDETLSSEDLDAMIDSIDADGSGTVDFEEFMGVMT [E44S] | 2.02
59 | ELREAFRLYDKEGNGYISTDVMREILAELDETLSSEDLDAMIDIIDADGSGTVDFEEFMGVMT [E44I] | 2.07
60 | ELREAFRLYDKEGNGYISTDVMREILAELDETLSSEDLDAMIDFIDADGSGTVDFEEFMGVMT [E44F] | 2.17
61 | ELREAFRLYDKEGNGYISTDVMREILAELDETLSSEDLDAMIDKIDADGSGTVDFEEFMGVMT [E44K] | 2.14
62 | ELREAFRLYDKEGNGYISTDVMREILAELDETLSSEDLDAMIDWIDADGSGTVDFEEFMGVMT [E44W] | 2.19
63 | ELREAFRLYDKEGNGYISTDVMREILAELDETLSSEDLDAMIDRIDADGSGTVDFEEFMGVMT [E44R] | 2.16
64 | ELREAFRLYDKEGNGYISTDVMREILAELDETLSSEDLDAMIDHIDADGSGTVDFEEFMGVMT [E44H] | 2.06
65 | ELREAFRLYDKEGNGYISTDVMREILAELDETLSSEDLDAMIDTIDADGSGTVDFEEFMGVMT [E44T] | 1.93
66 | ELREAFRLYDKEGNGYISTDVMREILAELDETLSSEDLDAMIDYIDADGSGTVDFEEFMGVMT [E44Y] | 2.02

Row | Variant | folding stability dG [kcal/mol]
67 | ELREAFRLYDKEGNGYISTDVMREILAELDETLSSEDLDAMIDCIDADGSGTVDFEEFMGVMT [E44C] | 2.19
68 | ELREAFRLYDKEGNGYISTDVMREILAELDETLSSEDLDAMIDPIDADGSGTVDFEEFMGVMT [E44P] | 0.7
69 | ELREAFRLYDKEGNGYISTDVMREILAELDETLSSEDLDAMIDVIDADGSGTVDFEEFMGVMT [E44V] | 2.01
70 | ELREAFRLYDKEGNGYISTDVMREILAELDETLSSEDLDAMIDLIDADGSGTVDFEEFMGVMT [E44L] | 2.19
71 | ELREAFRLYDKEGNGYISTDVMREILAELDETLSSEDLDAMIDMIDADGSGTVDFEEFMGVMT [E44M] | 2.14
72 | ELREAFRLYDKEGNGYISTDVMREILAELDETLSSEDLDAMIDNIDADGSGTVDFEEFMGVMT [E44N] | 1.95
73 | ELREAFRLYDKEGNGYISTDVMREILAELDETLSSEDLDAMIDDIDADGSGTVDFEEFMGVMT [E44D] | 1.76
74 | ELREAFRLYDKEGNGYISTDVMREILAELDETLSSEDLDAMIDGIDADGSGTVDFEEFMGVMT [E44G] | 1.85
75 | ELREAFRLYDKEGNGYISTDVMREILAELDETLSSEDLDAMIDEIDACGSGTVDFEEFMGVMT [D48C] | 1.4
76 | ELREAFRLYDKEGNGYISTDVMREILAELDETLSSEDLDAMIDEIDAIGSGTVDFEEFMGVMT [D48I] | 1.24
77 | ELREAFRLYDKEGNGYISTDVMREILAELDETLSSEDLDAMIDEIDAEGSGTVDFEEFMGVMT [D48E] | 1.48
78 | ELREAFRLYDKEGNGYISTDVMREILAELDETLSSEDLDAMIDEIDAAGSGTVDFEEFMGVMT [D48A] | 1.48
79 | ELREAFRLYDKEGNGYISTDVMREILAELDETLSSEDLDAMIDEIDAHGSGTVDFEEFMGVMT [D48H] | 1.51
80 | ELREAFRLYDKEGNGYISTDVMREILAELDETLSSEDLDAMIDEIDALGSGTVDFEEFMGVMT [D48L] | 1.38
81 | ELREAFRLYDKEGNGYISTDVMREILAELDETLSSEDLDAMIDEIDAFGSGTVDFEEFMGVMT [D48F] | 1.39
82 | ELREAFRLYDKEGNGYISTDVMREILAELDETLSSEDLDAMIDEIDAGGSGTVDFEEFMGVMT [D48G] | 1.37
83 | ELREAFRLYDKEGNGYISTDVMREILAELDETLSSEDLDAMIDEIDAMGSGTVDFEEFMGVMT [D48M] | 1.33
84 | ELREAFRLYDKEGNGYISTDVMREILAELDETLSSEDLDAMIDEIDAKGSGTVDFEEFMGVMT [D48K] | 1.57
85 | ELREAFRLYDKEGNGYISTDVMREILAELDETLSSEDLDAMIDEIDANGSGTVDFEEFMGVMT [D48N] | 1.84

Reference: the MegaScale stability set (Tsuboyama et al. 2023)
